The source of these data is patent US20210363257A1 (Pieris, published 2021).

For orientation: EC50 means the concentration needed to bring the measured effect to its halfway point. Read a high EC50 as lower potency in that assay. The IC50 is the midpoint of a concentration-inhibition curve. By Kd is commonly meant a measure of binding affinity in units of concentration. A higher Kd goes with weaker binding. What is called koff is the rate constant with which the complex falls apart. Higher therefore signals fast dissociation. As a reminder, the kon is the second-order rate constant of association. Low values mean slower complex formation, high ones faster complex formation.

For assay [1], the target named is T1, huCD137-His (human CD137 with a C-terminal polyhistidine tag) (human, UniProt Q07011 24-186).
T1 construct: Bought; also called huCD137-His-Bio
Nature of the assay: ELISA, huCD137-His coated, detection anti-NGAL-HRP. As to the method: (§1) Recombinant huPD-L1-His or cyPD-L1-His (human or cynomolgus PD-L1 with a C-terminal polyhistidine tag, R&D Systems or Sino Biologics) at the concentration of 1 μg/mL in PBS was coated overnight on microtiter plates at 4° C. After washing with PBS-0.05% T (PBS supplemented with 0.05% (v/v) Tween 20), the plates were blocked with 2% BSA (w/v) in PBS-0.1% T (PBS supplemented with 0.1% (v/v) Tween 20) for 1 h at room temperature. […] Bound molecules under study were detected by incubation with 1:5000 diluted anti-human IgG Fc-HRP (Jackson Laboratory) in PBS-0.1% T-2% BSA. After an additional wash step, fluorogenic HRP substrate (QuantaBlu, Thermo) was added to each well and the fluorescence intensity was detected using a fluorescence microplate reader.
(§2) The same ELISA setup was also employed to determine the binding potency of fusion proteins to CD137, where huCD137-His (human CD137 with C-terminal polyhistidine tag, R&D Systems) or cyCD137-Fc (cynomolgus CD137 C-terminally fused to Fc) was instead coated on a microtiter plate. The testing agents were similarly titrated and bound agents were detected via anti-NGAL-HRP.

In assay [2] the target is T2, biotinylated huCD137-Fc (human CD137 Fc fusion) (human, UniProt Q07011 24-186, biotinylated).
T2 construct: Bought; also called huCD137-Fc-bio
The assay is described as follows: competitive ELISA, antibody SEQ ID NOs: 28 and 29 coated (competitor), 1 nM huCD137-Fc-bio tracer, binder titrated. The protocol: The plates were washed five times after each incubation step with 100 μL PBS-0.05% T (PBS supplemented with 0.05% (v/v) Tween 20). The plates were blocked with 2% BSA (w/v) in PBS-0.1% T (PBS supplemented with 0.1% (v/v) Tween 20) for 1 h at room temperature and subsequently washed again. […] The mixtures of testing molecules and the tracer were added to the plates and incubated for 20 min at room temperature following by five washing steps with 100 μL PBS-0.05% T. Subsequently, a 1:5000 dilution of ExtrAvidin-HRP (Sigma-Aldrich) in PBS-0.1% T-2% BSA was added to the wells and incubated for 1 h. After an additional wash step, fluorogenic HRP substrate (QuantaBlu, Thermo) was added to each well, and the fluorescence intensity was detected using a fluorescence microplate reader.
Competition data for an exemplary experiment are shown in FIG. 14, where the x-axis represents testing molecule concentration and the y-axis represents the measured trace molecule concentration. The data were fit to a 1:1 sigmoidal curve, where the IC₅₀ value and the maximum signal were free parameters, and the slope was fixed to unity.
On the technique in general: ELISA stands for enzyme-linked immunosorbent assay.

Assay [3] has as its target T3, huPD-L1-His (human PD-L1 with a C-terminal polyhistidine tag) (human, UniProt Q9NZQ7 19-239).
T3 construct: Bought; also called biotinylated huPD-L1-His
Nature of the assay: ELISA, huPD-L1-His coated, detection anti-human IgG Fc-HRP per paragraph 264; the filing does not say that this reagent detects the lipocalin mutein alone.

Assay [4] addresses T4, human CD137 expressed on cells (human, UniProt Q07011 24-255).
T4 construct: whole, on cells; also called Flp-In-CHO::huCD137; NFκB-luc2/CD137 Jurkat cells
Nature of the assay: flow cytometry, Flp-In-CHO::huCD137 cells. The protocol: (§3) The geometric means of the fluorescence intensity were used to calculate EC₅₀ values using nonlinear regression (shared bottom, SLOPE=1).
(§4) 5×10⁴ cells per well were incubated for 1 h in ice-cold PBS containing 5% fetal calf serum (PBS-FCS). A dilution series of the fusion proteins and control antibodies were added to the cells and incubated for 1 h on ice. Cells were washed twice with PBS and then incubated with a goat anti-hIgG Alexa647-labeled antibody for 30 min on ice. Cells were subsequently washed and analyzed using iQue Flow cytometer (Intellicyte Screener). Mean geometric fluorescent signals were plotted and fitted with Graphpad software using nonlinear regression (shared bottom, SLOPE=1).
(In general: A flow cytometer gives signals particle by particle.)

In assay [5] the target is T5, human PD-L1 expressed on cells (human, UniProt Q9NZQ7 19-290).
T5 construct: whole, on cells; also called Flp-In-CHO::huPDL-1; RKO cells
The assay is described as follows: flow cytometry, Flp-In-CHO::huPDL-1 cells. The protocol:
as §3, §4

Assay [6] addresses T6, cynomolgus CD137 expressed on cells (cynomolgus, UniProt A9YYE7 24-254).
T6 construct: also called Flp-In-CHO::cynoCD137
Nature of the assay: flow cytometry, Flp-In-CHO::cynoCD137 cells. The protocol: as §3, §4

For assay [7], the target named is T7, cynomolgus PD-L1 expressed on cells (cynomolgus).
T7 construct: whole, on cells; also called Flp-In-CHO::cynoPDL-1
The assay is described as follows: flow cytometry, Flp-In-CHO::cynoPDL-1 cells. The protocol:
as §3, §4

Assay [8] has as its target T5, human PD-L1 expressed on cells. Nature of the assay: flow cytometry, RKO tumor cells (PD-L1-positive). The protocol: as §4
For flow cytometric analysis, RKO cells were incubated with fusion proteins and detected using a fluorescently labeled anti-human IgG antibody as described in Example 6.

In assay [9] the target is cyCD137-Fc (cynomolgus CD137 C-terminally fused to Fc) (cynomolgus). The assay is described as follows: ELISA, cyCD137-Fc coated, detection anti-NGAL-HRP. The protocol:
as §1, §2

Assay [10] has as its target T8, cyPD-L1-His (cynomolgus PD-L1 with a C-terminal polyhistidine tag) (cynomolgus).
T8 construct: Bought
Nature of the assay: ELISA, cyPD-L1-His coated, detection anti-human IgG Fc-HRP. As to the method:
as §1

For assay [11], the target named is T3, huPD-L1-His (human PD-L1 with a …). Nature of the assay: ELISA, huPD-L1-His coated, detection anti-human IgG Fc-HRP. As to the method: as §1
The target of assay [12] is T9, huPD-L1-Fc (recombinant human PD-L1 Fc fusion) (human, UniProt Q9NZQ7 19-239).
T9 construct: Bought; also called tracer huPD-L1-Fc
The assay is described as follows: competitive ELISA, huPD-1-His coated, 15 nM huPD-L1-Fc tracer, binder titrated. As to the method:
Recombinant huPD-1-His (Acrobiosystems) in PBS (1 μg/mL) was coated overnight on microtiter plates at 4° C. The plates were washed five times after each incubation step with 100 μL PBS-0.05% T (PBS supplemented with 0.05% (v/v) Tween 20). The plates were blocked with 2% BSA (w/v) in PBS-0.1% T (PBS supplemented with 0.1% (v/v) Tween 20) for 1 h at room temperature and subsequently washed again. […] The mixtures of fusion proteins and the tracer were added to the plates and incubated for 20 min at room temperature following by five washing steps with 100 μL PBS-0.05% T. Subsequently, a 1:5000 dilution of goat-anti human IgG-Fc HRP (Jackson) was added to the wells and incubated for 1 h. After an additional wash step, fluorogenic HRP substrate (QuantaBlu, Thermo) was added to each well, and the fluorescence intensity was detected using a fluorescence microplate reader.

In assay [13] the target is T1, huCD137-His (human CD137 with a …). The assay is described as follows: SPR (Biacore), binder captured by anti-human IgG Fc, huCD137-His in solution, 25 C, 1:1 model. As to the method:
(§5) The binding kinetics and affinity of exemplary fusion proteins to huPD-L1-His or huCD137-His (human PD-L1 or human CD137 with a C-terminal polyhistidine tag, R&D Systems) were determined by surface plasmon resonance (SPR) using a Biacore 8K or a Biacore T200 (GE Healthcare).
(§6) The anti-human IgG Fc antibody (GE Healthcare) was immobilized on a CM5 sensor chip using standard amine chemistry: the carboxyl groups on the chip were activated using 1-ethyl-3-(3-dimethylaminopropyl)-carbodiimide (EDC) and N-hydroxysuccinimide (NHS). Subsequently, anti-human IgG Fc antibody solution (GE Healthcare) at a concentration of 25 μg/mL in 10 mM sodium acetate (pH 5.0) was applied at a flow rate of 5 μL/min until an immobilization level of 6000-10000 resonance units (RU) was achieved. Residual non-reacted NHS-esters were blocked by passing a solution of 1M ethanolamine across the surface. The reference channel was treated in an analogous manner. […] After each capture step, the needle was washed.
(§7) Double referencing was used and the 1:1 binding model was used to fit the raw data.
(In SPR one partner is held on a chip, and binding of the other changes the refractive index at the surface.)

The target in assay [14] is T3, huPD-L1-His (human PD-L1 with a …). Nature of the assay: SPR (Biacore), binder captured by anti-human IgG Fc, huPD-L1-His in solution, 25 C, 1:1 model. The protocol: as §5, §6, §7
In assay [15] the target is T1, huCD137-His (human CD137 with a …). Nature of the assay: dual-binding ELISA, huCD137-His coated, binder titrated, detection with biotinylated huPD-L1-His.
Assay [16] addresses T3, huPD-L1-His (human PD-L1 with a …). The assay is described as follows: dual-binding ELISA, huPD-L1-His coated, binder titrated, detection with biotinylated huCD137-His. The protocol: Recombinant huPD-L1-His (R&D Systems) in PBS (1 μg/mL) was coated overnight on microtiter plates at 4° C. The plates were washed five times after each incubation step with 100 μL PBS-0.05% T. The plates were blocked with 2% BSA (w/v) in PBS-0.1% T for 1 h at room temperature and subsequently washed again. Different concentrations of tested fusion proteins were added to the wells and incubated for 1 h at room temperature, followed by a wash step. […] After washing, a 1:5000 dilution of ExtrAvidin-HRP (Sigma-Aldrich) in PBS-0.1% T-2% BSA was added to the wells and incubated for 1 h. After an additional wash step, fluorogenic HRP substrate (QuantaBlu, Thermo) was added to each well, and the fluorescence intensity was detected using a fluorescence microplate reader.

B1: CD137-specific lipocalin mutein SEQ ID NO: 42 (designed binder)
chain: QDSTSDLIPAPPLSKVPLQQNFQDNQFHGKWYVVGQAGNIRLREDKDPIKMMATIYELKEDKSYDVTMVKFDDKKCMYDIWTFVPGSQPGEFTLGKIKSFPGHTSSLVRVVSTNYNQHAMVFFKFVFQNREEFYITLYGRTKELTSELKENFIRFSKSLGLPENHIVFPVPIDQCIDG
notes: Mutein of mature human NGAL
Take B1: the 50% effective concentration (EC50) in assay [1] turned out to be 0.27 nM. This molecule gave a concentration for half-maximal inhibition (IC50) in assay [2] of 2.6 nM. In addition, in assay [3], the binding result is “no binding (tested: 100 nM)”.

B2: fusion protein SEQ ID NOs: 94 and 87 (bispecific antibody, human IgG4 S228P, kappa, F234A L235A)
heavy: not shown
light: EIVLTQSPDTLSVTPKEKVTLTCRASQSIGTNIHWFQQKPGQSPKLLIKYASESISGVPSRFSGSGSGTDFTLTINSVEAEDAATYYCQQSNSWPYTFGQGTKLEIKRTVAAPSVFIFPPSDEQLKSGTASVVCLLNNFYPREAKVQWKVDNALQSGNSQESVTEQDSKDSTYSLSSTLTLSKADYEKHKVYACEVTHQGLSSPVTKSFNRGEC
notes: Antibody-lipocalin mutein fusion, IgG4 S228P backbone
Turning to B2, the EC50 stood at 4.15 nM in assay [4]; 6.99 nM in [5]; 6.92 nM in [6]; 5.89 nM in [7]; 0.69 nM in assay [8]; 0.19 nM in assay [9]. Also, the 50% effective concentration (EC50) in assay [1] is 0.16 nM; in assay [10], 0.15 nM; in assay [11], 0.18 nM; in assay [15], 2.6 nM; in [16], 0.48 nM. Besides, in [12], the concentration for half-maximal inhibition (IC50) is 2.4 nM. Moreover, the Kd in [13] was determined as 5.5 nM; in assay [14] it was 0.608 nM. Besides, the koff in [13] turned out to be 0.000224 s⁻¹; in assay [14], 0.000916 s⁻¹. Also, the kon in assay [13] amounted to 40700 M⁻¹ s⁻¹; in [14], 1.51e+06 M⁻¹ s⁻¹.

B3: fusion protein SEQ ID NOs: 90 and 91 (bispecific antibody, human IgG4 S228P, kappa, F234A L235A)
heavy: not shown
light: EIVLTQSPDTLSVTPKEKVTLTCRASQSIGTNIHWFQQKPGQSPKLLIKYASESISGVPSRFSGSGSGTDFTLTINSVEAEDAATYYCQQSNSWPYTFGQGTKLEIKRTVAAPSVFIFPPSDEQLKSGTASVVCLLNNFYPREAKVQWKVDNALQSGNSQESVTEQDSKDSTYSLSSTLTLSKADYEKHKVYACEVTHQGLSSPVTKSFNRGECGGGGSGGGGSGGGGSQDSTSDLIPAPPLSKVPLQQNFQDNQFHGKWYVVGQAGNIRLREDKDPIKMMATIYELKEDKSYDVTMVKFDDKKCMYDIWTFVPGSQPGEFTLGKIKSFPGHTSSLVRVVSTNYNQHAMVFFKFVFQNREEFYITLYGRTKELTSELKENFIRFSKSLGLPENHIVFPVPIDQCIDG
notes: as for B2
With B3, the EC50 was 4.69 nM in assay [4]; 4.09 nM in assay [5]; 3.66 nM in assay [6]; 3.37 nM in assay [7]; 0.53 nM in assay [8]; 0.21 nM in assay [9]. Moreover, the EC50 in assay [1] came out at 0.14 nM; in assay [10], 0.17 nM; in assay [11] it was 0.2 nM; in [15], 2.3 nM; in [16], 0.49 nM. For the same molecule, in assay [12], the IC50 was 2.8 nM. Also, the figures for the equilibrium dissociation constant (Kd) in assay [13] and in assay [14] were 5.73 nM and 0.537 nM, respectively. Also, the koff was determined as 0.000224 s⁻¹ in [13] and 0.000861 s⁻¹ in [14]. Also, the association rate constant (kon) is 39100 M⁻¹ s⁻¹ in [13] and 1.6e+06 M⁻¹ s⁻¹ in assay [14].
